Measured values published in article PMC4925323 (Molecular microbiology, 2016).

Biological target: the molecule itself
Assay: crystal structure

B1: Listeria monocytogenes PrsA1 (residues 22-294), wild type (domain or fragment)
chain: CGSSAVIKTDAGSVTQDELYEAMKTTYGNEVVQQLTFKKILEDKYTVTEKEVNAEYKKYEEQYGDSFESTLSSNNLTKTSFKENLEYNLLVQKATEANMDVSESKLKAYYKTWEPDITVRHILVDDEATAKEIQTKLKNGEKFTDLAKEYSTDTATSTNGGLLDPFGPGEMDETFEKAAYALENKDDVSGIVKSTYGYHLIQLVKKTEKGTYAKEKANVKAAYIKSQLTSENMTAALKKELKAANIDIKDSDLKDAFADYTSTSSTSSTTTSN
stoichiometry N: 2
